From patent US20120114590A1 (priority 2005, published 2012)

Tests used:
mouse B cells = test: 3H-thymidine incorporation by mouse B cells; format: cell-based; conditions: 72 hrs culture
Experimental: Mouse B cells were isolated from 2 Balb/C spleens (7 months old) by depleting CD43+ cells using MACS magnetic beads. Purified B cells were cultured in vitro with LPS, anti-IgM or anti-CD40 monoclonal antibodies. Mouse IL-28 or mouse IFNα was added to the cultures and ^3H-thymidine was added at 48 hrs. and ^3H-thymidine incorporation was measured after 72 hrs. culture.

[1] = tested on: 293 HEK cells overexpressing zcytor19; test: Inhibition of ligand-induced ISRE-luciferase signaling by soluble receptors; format: cell-based, human; conditions: 10 ng/ml ligand, 10 micrograms/ml soluble receptor, 4-hour; relative to PBS alone
AML-12 cells = test: ISG induction in the mouse liver cell line AML-12 (real-time PCR); format: cell-based; conditions: AML-12, 20 ng/ml, 48 hour time point; mRNA relative to HPRT gene expression
Experimental: AML-12 cells were plated in 6-well plates in complete DMEM media at a concentration of 2×10^6 cells/well. […] As a control, cells were either stimulated with mouse IFNα (positive control) or unstimulated (negative). […] RNA was isolated from cell pellets using RNAEasy-kit® (Qiagen, Valencia, Calif.). RNA was treated with DNase (Millipore, Billerica, Mass.) to clean RNA of any contaminating DNA. cDNA was generated using Perkin-Elmer RT mix. ISG gene induction was evaluated by real-time PCR using primers and probes specific for mouse OAS, Pkr and Mx1. To obtain quantitative data, HPRT real-time PCR was duplexed with ISG PCR. A standard curve was obtained using known amounts of RNA from IFN-stimulated mouse PBLs. All data are shown as expression relative to internal HPRT expression.

[2] = tested on: ISRE signaling in HepG2 cells; conditions: 100 ng/ml ligand, 4-hour incubation; RLU over medium alone
adenoviral vector AdGFP = test: Adenoviral vector (AdGFP) liver pathology model in C57Bl/6 mice; conditions: AdGFP-infected C57Bl/6 mice, 50 μg i.p., 7 doses

B1: Zcyto24: mouse IL-28A (zcyto24), SEQ ID NO:8 (protein, listed as Mus musculus)
chain: MKPETAGGHMLLLLLPLLLAAVLTRTQADPVPRATRLPVEAKDCHIAQFKSLSPKELQAFKKAKDAIEKRLLEKDLRCSSHLFPRAWDLKQLQVQERPKALQAEVALTLKVWENMTDSALATILGQPLHTLSHIHSQLQTCTQLQATAEPRSPSRRLSRWLHRLQEAQSKETPGCLEASVTSNLFRLLTRDLKCVANGDQCV
3H thymidine incorporation by mouse B cells stimulated with anti-CD40 MAb (mouse B cells): increased | 3H-thymidine incorporation by mouse B cells stimulated with LPS or anti-IgM (mouse B cells; IFNα at 10 ng/ml, mouse IL-28 any concentration tested including 1000 ng/ml): did not inhibit | Percent Inhibition of Ligand-induced ISRE Signaling by HuCRF2-4-Fc [1]: 82% | Percent Inhibition of Ligand-induced ISRE Signaling by Huzcytor19-Fc [1]: 90% | Percent Inhibition of Ligand-induced ISRE Signaling by Huzcytor19-Fc/huCRF2-4-Fc [1]: 47% | Percent Inhibition of Ligand-induced ISRE Signaling by Muzcytor19-Ig [1]: 89% | Mx1 (AML-12 cells): 0.08 | OAS (AML-12 cells): 0.04 | PkR (AML-12 cells): 0.02 | Fold Induction of Cytokine-dependent ISRE Signaling in HepG2 Cells [2]: 4.7 fold | liver histology: liver and inflammation scores versus PBS-treated group (adenoviral vector AdGFP): lower liver and inflammation scores | average serum AST (adenoviral vector AdGFP; n=8): 193 U/L | relative liver fluorescence (adenoviral vector AdGFP; n=8): 34.5 arbitrary units | serum ALT (adenoviral vector AdGFP; n=8): 216 U/L
